Assay results from the supplement of paper PMC12042874.
± gives the uncertainty stated by the source.

Assay: amyloid nucleation score (Sup35N fusion, yeast selection) (log enrichment); library NNK1; higher = more nucleation; inactive = no reads after selection
Summary of the method: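 The nucleation score is a DiMSum log enrichment of output over input reads, centred on the mode score of non-aggregating sequences. Sequences under 100 input reads were excluded, and reads came from Illumina sequencing of plasmid inserts. Psi-negative yeast expressing Sup35N fused to peptides of 20 random codons were induced with 100 μM copper sulfate for 24 hours and grown 7 days at 30°C on medium lacking adenine and uracil. Random libraries had three technical output replicates.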

| Substance | amyloid nucleation score |
| --- | --- |
| LVLVRFITPVDLAVMNGRLW | -0.927 ± 0.34 |
| LVMRRKYLVNSNTLCSFGLH | inactive |
| LVMTYVFLDCI | -0.634 ± 1.1 |
| LVNDPVFMGTWILSARICNV | 0.323 ± 0.36 |
| LVPCSWFYLDRSAQDSDCFS | -0.754 ± 1.1 |
| LVPPGSYRSCLSHGRNCYSC | -0.203 ± 0.46 |
| LVPRIRFWDYHNTELATHQK | 5.13 ± 0.07 |
| LVQESRHGLIRIRRVLLRIS | -0.252 ± 0.52 |
| LVRGVHT | -0.446 ± 0.28 |
| LVRTIVLNKRIMWMIQLCFK | 0.86 ± 0.63 |
| LVTFNDSQLSTWASLGLNS | -0.003 ± 0.46 |
| LVVFISRVFTNDITFRFANI | 0.675 ± 0.78 |
| LVYPYESLFHFESGASH | 0.32 ± 0.21 |
| LVYSFRKTFSC | 7.523 ± 0.047 |
| LWCITYH | 4.14 ± 0.1 |
| LWCVLHDVGGGSYSLDRYTG | 0.379 ± 0.83 |
| LWFLIFSSKADAKVDRRILL | 0.041 ± 0.47 |
| LWGFSISYRKFVVSYGKAP | 0.279 ± 0.31 |
| LWGWGFSSEANPIGGRGILN | 0.277 ± 0.53 |
| LWLRLRFVCKYRV | 1.9 ± 0.59 |
| LWPFKSFGLVPCTV | -0.572 ± 0.69 |
| LWPTGSRLSDG | -0.354 ± 0.51 |

| Substance | amyloid nucleation score |
| --- | --- |
| LWVVRI | 0.67 ± 0.85 |
| LWVYSMWVQLTAGFNTVDVM | -0.707 ± 0.95 |
| LWYCTSSNNCDCSAAIIVNT | 4.19 ± 0.1 |
| LYAALIIDYA | 0.681 ± 0.66 |
| LYDCCYIFTYYGSRYLTQKS | -0.091 ± 0.27 |
| LYFKSSRCR | 1.12 ± 0.52 |
| LYFWFVCNFAEIDFTITL | 3.05 ± 0.097 |
| LYHSVSSVEDLQSDACTSCM | 6.728 ± 0.046 |
| LYIYWCSWVNGTFT | 0.393 ± 0.33 |
| LYLEGINVFSVMLHEVLHTG | -0.052 ± 0.43 |
| LYLYNYRFAGLFFIDLETIW | -0.415 ± 0.57 |
| LYMVWCACSFWDYITVFIFM | 0.041 ± 0.65 |
| LYMYRSYI | 0.137 ± 0.42 |
| LYPSISGFFCCKWGSVVNGL | inactive |
| LYQKHWVLSTALE | inactive |
| LYRWCGPCYLIWGVSWS | -0.199 ± 0.45 |
| LYSDGLFANRTWLYF | 1.01 ± 0.61 |
| LYSFNGN | inactive |
| LYYIRVFRNSI | -0.751 ± 0.46 |
| LYYNFKF | 0.321 ± 0.33 |
| LYYRKLVCWESGMA | 0.318 ± 0.66 |
| LYYYEQH | -0.388 ± 0.54 |

| Substance | amyloid nucleation score |
| --- | --- |
| MADFFIHCFLSSYCEWFIWR | -0.283 ± 0.46 |
| MAPLTMTSDLSHISKTGIWG | 1.38 ± 0.9 |
| MASHGDWGCSNRVFLFPHCR | -2.08 ± 1.9 |
| MASPLSLGKAVALAKHKWGD | 0.001 ± 1.1 |
| MATSPFGERVPFIYLDHFCY | 0.009 ± 0.42 |
| MCDVERCRS | inactive |
| MCLLKGGSLVIVCGSGH | 5.76 ± 0.061 |
| MDFDRCYSFRGMR | -0.13 ± 0.47 |
| MDFYVLPNCRQNGMLCERSC | 0.508 ± 0.67 |
| MDNCIISRYMFHMLVTSKVY | 0.996 ± 0.52 |
| MDPTEEE | -0.573 ± 1.4 |
| MDSCCIMTMIKHELGLPYQP | 3.77 ± 0.1 |
| MDSRAVYYF | inactive |
| MDSTHSIPCHLNVFL | -0.475 ± 0.58 |
| MDSYLSSNCKCDTLDVGGNE | -1.17 ± 1.6 |
| MDTSL | -0.235 ± 0.82 |
| MEIRYYFVFEEDGRVFEGGT | 0.025 ± 0.43 |
| MELTIAKSEMHVFKGGCVQL | -0.45 ± 0.57 |
| MFAVMNGAVLSTPLDNVCRV | -0.581 ± 1.6 |
| MFCIDSRAVAGMRDGRINLG | 1.64 ± 0.21 |
| MFFGWGT | 1.19 ± 0.34 |
| MFFLQCQMRLSLLVGNVLMR | -0.054 ± 0.56 |

| Substance | amyloid nucleation score |
| --- | --- |
| MFHSYVSLGLCKW | 0.371 ± 0.84 |
| MFIYIYGVPVLTLWGFNVCV | 0.856 ± 0.48 |
| MFMSWVDFNLD | 0.066 ± 0.29 |
| MFNRWDIHFIGNNNLYGICV | 0.613 ± 0.26 |
| MFRSRGLMAQRYNFGTQLSY | inactive |
| MFSLYYPFSNWFDLI | -0.001 ± 0.52 |
| MFTWEL | 0.436 ± 1.2 |
| MFVSLSSFSYLGKTLLVFFV | inactive |
| MFYKSRLYNRYRYRHRCYNT | -0.072 ± 0.27 |
| MFYVPIGPLSRCWRTALGFI | -0.786 ± 0.85 |
| MGDVFILFLLAGFLEDHNGY | -1.24 ± 0.45 |
| MGNLATRWFQR | -0.037 ± 1.4 |
| MGRMS | 0.22 ± 0.69 |
| MGYCIWFYLKSYH | -0.074 ± 0.3 |
| MHYGTLSIVV | 0.302 ± 0.3 |
| MHYRGKFLHDHWHESH | -0.485 ± 1.1 |
| MILFSYNG | 1.7 ± 0.58 |
| MILTTPAAERLLYYILPLRD | -0.616 ± 0.81 |
| MIMTW | -0.418 ± 0.48 |
| MIQRGLVGKDSTHVI | -0.175 ± 0.57 |
| MIQVPFKCPCKLTADLGGNW | inactive |
| MIRQFSVSICSTRSVCVHPR | -0.135 ± 0.59 |
